Laboratory results taken from patent publication US20260167699A1 (Chugai, published 2026).

B1: GpH7-A5/GpH7-B3 variant E269_19Q/GpL16-k0 (antibody, human IgG1, kappa)
heavy 1: not shown
heavy 2: not shown
light: DIVMTQSPLSLPVTPGEPASISCQASESLVHSNRNTYLHWYLQKPGQSPQLLIYKVSNRFSGVPDRFSGSGSGTDFTLKISRVEAEDVGVYYCSQNTHVPPTFGQGTKVEIERTVAAPSVFIFPPSDEQLKSGTASVVCLLNNFYPREAKVQWKVDNALQSGNSQESVTEQDSKDSTYSLSSTLTLSKADYEKHKVYACEVTHQGLSSPVTKSFNRGEC
notes: He Ab; copies: 1 + 1 + 2
B2: GpH7-A5/GpH7-B3 variant H268_03V/GpL16-k0 (antibody, human IgG1, kappa)
heavy 1: not shown
heavy 2: not shown
light: B1 light
notes: He Ab; copies: 1 + 1 + 2
B3: GpH7-A5/GpH7-B3 variant I332_13S/GpL16-k0 (antibody, human IgG1, kappa)
heavy 1: not shown
heavy 2: not shown
light: B1 light
notes: He Ab; copies: 1 + 1 + 2
B4: GpH7-A5/GpH7-B3 variant G237_14T/GpL16-k0 (antibody, human IgG1, kappa)
heavy 1: not shown
heavy 2: not shown
light: B1 light
notes: He Ab; copies: 1 + 1 + 2
B5: GpH7-A5/GpH7-B3 variant E333_01G/GpL16-k0 (antibody, human IgG1, kappa)
heavy 1: not shown
heavy 2: not shown
light: B1 light
notes: He Ab; copies: 1 + 1 + 2
B6: GpH7-A5/GpH7-B3 variant I332_16H/GpL16-k0 (antibody, human IgG1, kappa)
heavy 1: not shown
heavy 2: not shown
light: B1 light
notes: He Ab; copies: 1 + 1 + 2
B7: GpH7-A5/GpH7-B3 variant H268_01G/GpL16-k0 (antibody, human IgG1, kappa)
heavy 1: not shown
heavy 2: not shown
light: B1 light
notes: He Ab; copies: 1 + 1 + 2
B8: GpH7-A5/GpH7-B3 variant K326_10E/GpL16-k0 (antibody, human IgG1, kappa)
heavy 1: not shown
heavy 2: not shown
light: B1 light
notes: He Ab; copies: 1 + 1 + 2
B9: GpH7-A5/GpH7-B3 variant H268_08L/GpL16-k0 (antibody, human IgG1, kappa)
heavy 1: not shown
heavy 2: not shown
light: B1 light
notes: He Ab; copies: 1 + 1 + 2
B10: GpH7-A5/GpH7-B3 variant G237_03V/GpL16-k0 (antibody, human IgG1, kappa)
heavy 1: not shown
heavy 2: not shown
light: B1 light
notes: He Ab; copies: 1 + 1 + 2
B11: GpH7-A5/GpH7-B3 variant I332_03V/GpL16-k0 (antibody, human IgG1, kappa)
heavy 1: not shown
heavy 2: not shown
light: B1 light
notes: He Ab; copies: 1 + 1 + 2
B12: GpH7-A5/GpH7-B3 variant H268_15Y/GpL16-k0 (antibody, human IgG1, kappa)
heavy 1: not shown
heavy 2: not shown
light: B1 light
notes: He Ab; copies: 1 + 1 + 2
B13: GpH7-A5/GpH7-B3 variant E333_06M/GpL16-k0 (antibody, human IgG1, kappa)
heavy 1: not shown
heavy 2: not shown
light: B1 light
notes: He Ab; copies: 1 + 1 + 2
B14: GpH7-A5/GpH7-B3 variant E333_14T/GpL16-k0 (antibody, human IgG1, kappa)
heavy 1: not shown
heavy 2: not shown
light: B1 light
notes: He Ab; copies: 1 + 1 + 2
B15: GpH7-A5/GpH7-B3 variant K326_03V/GpL16-k0 (antibody, human IgG1, kappa)
heavy 1: not shown
heavy 2: not shown
light: B1 light
notes: He Ab; copies: 1 + 1 + 2
B16: GpH7-A5/GpH7-B3 variant H268_11K/GpL16-k0 (antibody, human IgG1, kappa)
heavy 1: not shown
heavy 2: not shown
light: B1 light
notes: He Ab; copies: 1 + 1 + 2
B17: GpH7-A5/GpH7-B3 variant G236_20W/GpL16-k0 (antibody, human IgG1, kappa)
heavy 1: not shown
heavy 2: not shown
light: B1 light
notes: He Ab; copies: 1 + 1 + 2
B18: GpH7-A5/GpH7-B3 variant H268_06M/GpL16-k0 (antibody, human IgG1, kappa)
heavy 1: not shown
heavy 2: not shown
light: B1 light
notes: He Ab; copies: 1 + 1 + 2
B19: GpH7-A5/GpH7-B3 variant H268_20W/GpL16-k0 (antibody, human IgG1, kappa)
heavy 1: not shown
heavy 2: not shown
light: B1 light
notes: He Ab; copies: 1 + 1 + 2
B20: GpH7-A5/GpH7-B3 variant G236_03V/GpL16-k0 (antibody, human IgG1, kappa)
heavy 1: not shown
heavy 2: not shown
light: B1 light
notes: He Ab; copies: 1 + 1 + 2
B21: GpH7-A5/GpH7-B3 variant I332_10E/GpL16-k0 (antibody, human IgG1, kappa)
heavy 1: not shown
heavy 2: not shown
light: B1 light
notes: He Ab; copies: 1 + 1 + 2
B22: GpH7-A5/GpH7-B3 variant K326_02A/GpL16-k0 (antibody, human IgG1, kappa)
heavy 1: not shown
heavy 2: not shown
light: B1 light
notes: He Ab; copies: 1 + 1 + 2
B23: GpH7-A5/GpH7-B3 variant H268_18N/GpL16-k0 (antibody, human IgG1, kappa)
heavy 1: not shown
heavy 2: not shown
light: B1 light
notes: He Ab; copies: 1 + 1 + 2
B24: GpH7-A5/GpH7-B3 variant E333_12R/GpL16-k0 (antibody, human IgG1, kappa)
heavy 1: not shown
heavy 2: not shown
light: B1 light
notes: He Ab; copies: 1 + 1 + 2
B25: GpH7-A5/GpH7-B3 variant I332_04F/GpL16-k0 (antibody, human IgG1, kappa)
heavy 1: not shown
heavy 2: not shown
light: B1 light
notes: He Ab; copies: 1 + 1 + 2
B26: GpH7-A5/GpH7-B3 variant K326_12R/GpL16-k0 (antibody, human IgG1, kappa)
heavy 1: not shown
heavy 2: not shown
light: B1 light
notes: He Ab; copies: 1 + 1 + 2
B27: GpH7-A5/GpH7-B3 variant I332_02A/GpL16-k0 (antibody, human IgG1, kappa)
heavy 1: not shown
heavy 2: not shown
light: B1 light
notes: He Ab; copies: 1 + 1 + 2
B28: GpH7-A5/GpH7-B3 variant H268_12R/GpL16-k0 (antibody, human IgG1, kappa)
heavy 1: not shown
heavy 2: not shown
light: B1 light
notes: He Ab; copies: 1 + 1 + 2
B29: GpH7-A5/GpH7-B3 variant K326_01G/GpL16-k0 (antibody, human IgG1, kappa)
heavy 1: not shown
heavy 2: not shown
light: B1 light
notes: He Ab; copies: 1 + 1 + 2
B30: GpH7-A5/GpH7-B3 variant K326_05P/GpL16-k0 (antibody, human IgG1, kappa)
heavy 1: not shown
heavy 2: not shown
light: B1 light
notes: He Ab; copies: 1 + 1 + 2
B31: GpH7-A5/GpH7-B3 variant G236_02A/GpL16-k0 (antibody, human IgG1, kappa)
heavy 1: not shown
heavy 2: not shown
light: B1 light
notes: He Ab; copies: 1 + 1 + 2
B32: GpH7-A5/GpH7-B3 variant H268_14T/GpL16-k0 (antibody, human IgG1, kappa)
heavy 1: not shown
heavy 2: not shown
light: B1 light
notes: He Ab; copies: 1 + 1 + 2
B33: GpH7-A5/GpH7-B3 variant I332_14T/GpL16-k0 (antibody, human IgG1, kappa)
heavy 1: not shown
heavy 2: not shown
light: B1 light
notes: He Ab; copies: 1 + 1 + 2
B34: GpH7-A5/GpH7-B3 variant G236_15Y/GpL16-k0 (antibody, human IgG1, kappa)
heavy 1: not shown
heavy 2: not shown
light: B1 light
notes: He Ab; copies: 1 + 1 + 2
B35: GpH7-A5/GpH7-B3 variant H268_02A/GpL16-k0 (antibody, human IgG1, kappa)
heavy 1: not shown
heavy 2: not shown
light: B1 light
notes: He Ab; copies: 1 + 1 + 2
B36: GpH7-A5/GpH7-B3 variant I332_06M/GpL16-k0 (antibody, human IgG1, kappa)
heavy 1: not shown
heavy 2: not shown
light: B1 light
notes: He Ab; copies: 1 + 1 + 2
B37: GpH7-A5/GpH7-B3 variant G236_10E/GpL16-k0 (antibody, human IgG1, kappa)
heavy 1: not shown
heavy 2: not shown
light: B1 light
notes: He Ab; copies: 1 + 1 + 2
B38: GpH7-A5/GpH7-B3 variant K326_06M/GpL16-k0 (antibody, human IgG1, kappa)
heavy 1: not shown
heavy 2: not shown
light: B1 light
notes: He Ab; copies: 1 + 1 + 2
B39: GpH7-A5/GpH7-B3 variant K326_08L/GpL16-k0 (antibody, human IgG1, kappa)
heavy 1: not shown
heavy 2: not shown
light: B1 light
notes: He Ab; copies: 1 + 1 + 2
B40: GpH7-A5/GpH7-B3 variant K326_13S/GpL16-k0 (antibody, human IgG1, kappa)
heavy 1: not shown
heavy 2: not shown
light: B1 light
notes: He Ab; copies: 1 + 1 + 2
B41: GpH7-A5/GpH7-B3 variant H268_07I/GpL16-k0 (antibody, human IgG1, kappa)
heavy 1: not shown
heavy 2: not shown
light: B1 light
notes: He Ab; copies: 1 + 1 + 2
B42: GpH7-A5/GpH7-B3 variant G236_04F/GpL16-k0 (antibody, human IgG1, kappa)
heavy 1: not shown
heavy 2: not shown
light: B1 light
notes: He Ab; copies: 1 + 1 + 2
B43: GpH7-A5/GpH7-B3 variant K326_07I/GpL16-k0 (antibody, human IgG1, kappa)
heavy 1: not shown
heavy 2: not shown
light: B1 light
notes: He Ab; copies: 1 + 1 + 2
B44: GpH7-A5/GpH7-B3 variant E333_07I/GpL16-k0 (antibody, human IgG1, kappa)
heavy 1: not shown
heavy 2: not shown
light: B1 light
notes: He Ab; copies: 1 + 1 + 2
B45: GpH7-A5/GpH7-B3 variant K326_04F/GpL16-k0 (antibody, human IgG1, kappa)
heavy 1: not shown
heavy 2: not shown
light: B1 light
notes: He Ab; copies: 1 + 1 + 2
B46: GpH7-A5/GpH7-B3 variant H268_10E/GpL16-k0 (antibody, human IgG1, kappa)
heavy 1: not shown
heavy 2: not shown
light: B1 light
notes: He Ab; copies: 1 + 1 + 2
B47: GpH7-A5/GpH7-B3 variant K326_09D/GpL16-k0 (antibody, human IgG1, kappa)
heavy 1: not shown
heavy 2: not shown
light: B1 light
notes: He Ab; copies: 1 + 1 + 2
B48: GpH7-A5/GpH7-B3 variant G236_07I/GpL16-k0 (antibody, human IgG1, kappa)
heavy 1: not shown
heavy 2: not shown
light: B1 light
notes: He Ab; copies: 1 + 1 + 2
B49: GpH7-A5/GpH7-B3 variant H268_04F/GpL16-k0 (antibody, human IgG1, kappa)
heavy 1: not shown
heavy 2: not shown
light: B1 light
notes: He Ab; copies: 1 + 1 + 2
B50: GpH7-A5/GpH7-B3 variant H268_13S/GpL16-k0 (antibody, human IgG1, kappa)
heavy 1: not shown
heavy 2: not shown
light: B1 light
notes: He Ab; copies: 1 + 1 + 2
B51: GpH7-A5/GpH7-B3 variant I332_19Q/GpL16-k0 (antibody, human IgG1, kappa)
heavy 1: not shown
heavy 2: not shown
light: B1 light
notes: He Ab; copies: 1 + 1 + 2
B52: GpH7-A5/GpH7-B3 variant H268_19Q/GpL16-k0 (antibody, human IgG1, kappa)
heavy 1: not shown
heavy 2: not shown
light: B1 light
notes: He Ab; copies: 1 + 1 + 2
B53: GpH7-A5/GpH7-B3 variant H268_09D/GpL16-k0 (antibody, human IgG1, kappa)
heavy 1: not shown
heavy 2: not shown
light: B1 light
notes: He Ab; copies: 1 + 1 + 2
B54: GpH7-A5/GpH7-B3 variant E333_11K/GpL16-k0 (antibody, human IgG1, kappa)
heavy 1: not shown
heavy 2: not shown
light: B1 light
notes: He Ab; copies: 1 + 1 + 2
B55: GpH7-A5/GpH7-B3 variant G236_09D/GpL16-k0 (antibody, human IgG1, kappa)
heavy 1: not shown
heavy 2: not shown
light: B1 light
notes: He Ab; copies: 1 + 1 + 2
B56: GpH7-A5/GpH7-B3 variant E333_18N/GpL16-k0 (antibody, human IgG1, kappa)
heavy 1: not shown
heavy 2: not shown
light: B1 light
notes: He Ab; copies: 1 + 1 + 2

Target: T1, FcγRIIIa extracellular domain, C-terminal His tag (human, UniProt P08637 17-208)
T1 construct: extracellular domain; also called 3a
T1 sequence (P08637 other isoform, or with tags, fused parts or gaps): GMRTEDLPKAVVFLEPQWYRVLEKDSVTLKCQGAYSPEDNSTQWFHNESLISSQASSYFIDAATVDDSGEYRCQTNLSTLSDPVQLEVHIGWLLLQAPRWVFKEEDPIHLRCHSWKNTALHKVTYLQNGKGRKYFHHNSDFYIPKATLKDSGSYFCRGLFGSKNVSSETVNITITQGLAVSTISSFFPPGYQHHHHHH
Experiment: SPR, binding activity relative to GpH7-A5/GpH7-B3/GpL16-k0 (=100)

| Binder | He/Con 3a [%] |
| --- | --- |
| B1 | 64.3 |
| B2 | 91.4 |
| B3 | 95.6 |
| B4 | 50.5 |
| B5 | 101 |
| B6 | 89 |
| B7 | 95.7 |
| B8 | 138 |
| B9 | 75.9 |
| B10 | 51.3 |
| B11 | 85.2 |
| B12 | 96.5 |
| B13 | 100 |
| B14 | 100 |
| B15 | 135 |
| B16 | 81.6 |
| B17 | 126 |
| B18 | 79.5 |
| B19 | 82 |

| Binder | He/Con 3a [%] |
| --- | --- |
| B20 | 53.8 |
| B21 | 213 |
| B22 | 130 |
| B23 | 103 |
| B24 | 92.2 |
| B25 | 89.3 |
| B26 | 101 |
| B27 | 103 |
| B28 | 76 |
| B29 | 114 |
| B30 | 117 |
| B31 | 77 |
| B32 | 90.3 |
| B33 | 110 |
| B34 | 112 |
| B35 | 121 |
| B36 | 92.5 |
| B37 | 65.8 |
| B38 | 127 |

| Binder | He/Con 3a [%] |
| --- | --- |
| B39 | 126 |
| B40 | 118 |
| B41 | 84.1 |
| B42 | 81 |
| B43 | 153 |
| B44 | 100 |
| B45 | 114 |
| B46 | 184 |
| B47 | 148 |
| B48 | 55.6 |
| B49 | 96 |
| B50 | 121 |
| B51 | 101 |
| B52 | 113 |
| B53 | 195 |
| B54 | 97.7 |
| B55 | 66.2 |
| B56 | 76.2 |
